Assay results taken from patent publication US20030175270.

Biological target: JAK2 immunoprecipitated from BMMC lysates (tyrosine-phosphorylated), Q62120
Sequence (Q62120 whole entry): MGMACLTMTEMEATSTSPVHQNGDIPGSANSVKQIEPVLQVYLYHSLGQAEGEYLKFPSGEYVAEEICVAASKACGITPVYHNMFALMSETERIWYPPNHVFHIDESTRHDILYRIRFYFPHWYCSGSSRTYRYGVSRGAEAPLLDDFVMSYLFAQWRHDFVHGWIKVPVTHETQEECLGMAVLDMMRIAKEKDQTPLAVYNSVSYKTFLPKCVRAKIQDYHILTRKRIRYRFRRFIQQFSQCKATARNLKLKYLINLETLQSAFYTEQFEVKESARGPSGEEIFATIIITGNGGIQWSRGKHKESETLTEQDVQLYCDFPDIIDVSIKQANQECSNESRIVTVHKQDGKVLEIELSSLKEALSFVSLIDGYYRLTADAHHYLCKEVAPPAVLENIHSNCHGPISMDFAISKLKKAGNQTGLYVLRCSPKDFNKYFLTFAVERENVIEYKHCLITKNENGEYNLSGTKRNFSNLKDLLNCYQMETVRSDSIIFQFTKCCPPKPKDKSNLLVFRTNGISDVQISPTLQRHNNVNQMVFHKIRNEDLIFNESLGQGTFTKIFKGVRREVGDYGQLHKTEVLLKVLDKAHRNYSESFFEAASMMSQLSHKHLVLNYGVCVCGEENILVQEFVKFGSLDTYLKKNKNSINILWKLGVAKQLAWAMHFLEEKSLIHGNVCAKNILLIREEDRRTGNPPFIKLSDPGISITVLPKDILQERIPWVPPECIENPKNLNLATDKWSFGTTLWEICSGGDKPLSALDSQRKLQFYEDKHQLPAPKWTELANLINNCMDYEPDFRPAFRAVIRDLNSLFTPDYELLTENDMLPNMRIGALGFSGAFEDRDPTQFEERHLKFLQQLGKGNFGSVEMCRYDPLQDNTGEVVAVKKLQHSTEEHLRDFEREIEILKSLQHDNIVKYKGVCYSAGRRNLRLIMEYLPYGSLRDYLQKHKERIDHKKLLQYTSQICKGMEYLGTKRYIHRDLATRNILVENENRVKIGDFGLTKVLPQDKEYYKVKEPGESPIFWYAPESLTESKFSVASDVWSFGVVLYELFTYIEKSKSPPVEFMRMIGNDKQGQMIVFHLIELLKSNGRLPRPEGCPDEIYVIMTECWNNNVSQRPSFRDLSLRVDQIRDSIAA

B1: bacterial lambda PTPase (protein)
chain: MRYYEKIDGSKYRNIWVVGDLHGCYTNLMNKLDTIGFDNKKDLLISVGDLVDRGAENVECLELITFPWFRAVRGNHEQMMIDGLSERGNVNHWLLNGGGWFFNLDYDKEILAKALAHKADELPLIIELVSKDKKYVICHADYPFDEYEFGKPVDHQQVIWNRERISNSQNGIVKEIKGADTFIFGHTPAVKPLKFANQMYIDTGAVFCGNLTLIQVQGEGA
**Q.** B1 was tested. Which “tyrosine dephosphorylation in vitro (phosphatase assay)” value did it give?
**A.** Its value is “the human non-receptor tyrosine PTPase TC-PTP and the bacterial lambda PTPase did not dephosphorylate JAK2 in vitro”.

B2: human non-receptor tyrosine PTPase TC-PTP (protein)
chain: MPTTIEREFEELDTQRRWQPLYLEIRNESHDYPHRVAKFPENRNRNRYRDVSPYDHSRVKLQNAENDYINASLVDIEEAQRSYILTQGPLPNTCCHFWLMVWQQKTKAVVMLNRIVEKESVKCAQYWPTDDQEMLFKETGFSVKLLSEDVKSYYTVHLLQLENINSGETRTISHFHYTTWPDFGVPESPASFLNFLFKVRESGSLNPDHGPAVIHCSAGIGRSGTFSLVDTCLVLMEKGDDINIKQVLLNMRKYRMGLIQTPDQLRFSYMAIIEGAKCIKGDSSIQKRWKELSKEDLSPAFDHSPNKIMTEKYNGNR
**Q.** With B2 as the protein, how does the “tyrosine dephosphorylation in vitro (phosphatase assay)” value read?
**A.** Its value is “the human non-receptor tyrosine PTPase TC-PTP and the bacterial lambda PTPase did not dephosphorylate JAK2 in vitro”.
